Drawing on US20180052165A1, this text covers fold-change of signal, siCL versus siCLDN1 cells for one substance.

The test addresses human claudin-1 (human) (UniProt O95832). Description: confocal fluorescence on SW620 cells with control siRNA versus CLDN1 siRNA; non-significant.

human claudin-1 (human), sequence (O95832 whole entry): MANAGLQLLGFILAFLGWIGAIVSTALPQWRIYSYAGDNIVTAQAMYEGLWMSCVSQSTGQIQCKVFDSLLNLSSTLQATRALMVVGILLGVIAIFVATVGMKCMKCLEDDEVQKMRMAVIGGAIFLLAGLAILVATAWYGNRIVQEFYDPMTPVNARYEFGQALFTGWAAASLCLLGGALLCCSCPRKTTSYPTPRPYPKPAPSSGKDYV

As for “SPT*-Cy5.5 (control scrambled peptide SPTPSSR labeled with Cy5.5 via the GGGSK linker)”, the fold-change of signal, siCL versus siCLDN1 cells amounted to 0.8 fold.
